# Data taken from PMC4293345 (Molecular and cellular neurosciences, 2014).
# Read-outs that look alike come from different tables or passages of the source.
# B1: GST-tagged IQ-like domain of CaV2.1 (domain or fragment)
# chain: LMALIRTALDIKIAKGGADKQQMDAELRKEMMAIWPNLSQKTLDLLVTPHKSTDLTVGKIYAAMMIMEYYRQSKAKKLQAMREEQNRTPLMFQRMEPPSPTQEGGPSQNALPSTQLD
# What was measured:
# [1] = molecular target: T1, MBP-tagged NCS-1 (neuronal calcium sensor-1) (UniProt P62166 1-190); test: pull-down
# [2] = molecular target: T1, MBP-tagged NCS-1 (neuronal calcium …); test: pull-down; remark: listed apart in the source
# T1 sequence (P62166 whole entry): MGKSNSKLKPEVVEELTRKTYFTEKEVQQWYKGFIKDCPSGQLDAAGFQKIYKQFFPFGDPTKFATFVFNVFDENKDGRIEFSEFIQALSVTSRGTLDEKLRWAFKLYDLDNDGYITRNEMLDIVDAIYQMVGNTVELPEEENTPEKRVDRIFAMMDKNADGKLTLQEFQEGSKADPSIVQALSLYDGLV
binder,measurement,setting,value
B1,relative binding (ratio of IQ-GST to NCS-1-MBP),[1],0.56 ± 0.06
same,relative binding (ratio of IQ-GST to NCS-1-MBP),[2],0.57 ± 0.06
